This data set is described as follows: label from the status in PepcDB records.

These results are taken from a protein production outcome set (Wang et al. 2014).

Turning to “MKSFFSIFGDPSVTSVAIGKFDGMHLAHQRLFSYLDEGGAILTVDAQRGNLTPGEYKREFTPFPLYSIPLGKIKHLSGERFIYMLKKAFPNLTKVVVGYDFRFGKNRAFGVEELRGYFAGEVVVVPEVFHRGHSVHSEAIRELIAQGEMNLAGELLGRD”, the protein production result is “failed”.
As to “MKSFVATVLVALLFIVALVFGARNEQVVTISYFVAQGEYRLPVVLAVVFFTGFMLSWLVASYYIVRLKLALAATRKKLTLQTAKKPQGVDA”, the protein production result is listed as “failed”.
To “MKSGVIPSSAVGQKINEWYRYIRTFSVPDAEVLKAEIQQELKHMQHDSNLLLYYSLMEFRHQLMLDYLEPLEKLNIEDQPSLSELSRNIDSNQADLKGLLDYYVNFFRGMYEFDKREFISAITYYKQAEKKLSFVADHIERAEFYFKIAEAYYYMKQTYFSLINIKNAYEIYVEQETYNVRIIQCHFVFGVNLMDERNFEQAARHFKLALNMAQAEQKAQLVGRAYYNLGLCYYNQDLLDPAIDYFEKAVSTFESSRIVNSLPQAYFLITLIYYKQGKHDKASEYHKRGYEYAKETDDADYAVKFEFLQSLYLDQPNEEGIERCFQYLKNKNMYADIEDLALEVAKYYYEQKWFKLSASYFLQVEEARKQIQRSEGLYEIEI” belongs “failed”; to “MKSIEKDKYQDIRDAVRSLCSEFDDKYHRKIDEAKAYPEEFVNKLTKAGWLAALIPEEFGGSGLGLTEASIIMEEINRSGGNSGACHGQMYNMNTLLRHGSDKQKEFWLPRIATGEWRLQSMGVTEPTAGTDTTRIKTTAVKREDRYVINGQKVWISRVQHSDWMILLVRTTPLANVKRKSEGMSIFMVDIKEAMKNGMTVRPIPNMVNHETNELFFDNLEIPEENLIGEEGMGFHYILDGLNAERTLIAAECIGDGYWFMDRVTRYTCEREVFGRPIGQNQGVQFPIAEAFIAVEAANLMRFKACELFDQHLDCGAQANMAKYLAAKASWEAANACLQFHGGYGFACEYDIERKFRETRLYQVAPISTNLILSYIAEHVLEMPRSF”, “failed”; to “MKSILEQLSSMTVVVADTGDLDSIKKFQPRDATTNPSLILAAAKNPDYVKLIDKAIESSENTLPNGFSEIELIKETVDQVSVFFGKEILKIISGRVSTEVDARLSFDTEATVKKARKLINLYKNFGIEKERILIKIAATWEGIKAAEILEKEGIKCNLTLLFNFCQAVTCANANITLISPFVGRILDWHKAKTGKTSFIGAEDPGVISVTQIYKYFKEKGFKTEVMGASFRNLDEIKELAGCDLLTIAPKFLEELKREKGVLIRKLDASTKINNSIDYKFEEKDFRLSMLEDQMASEKLSEGITGFSKAIEELEELLIERLSEMKNHKLISAN”, “not failed”.
Regarding “MKSKFFAQNRERLVNTLPDESITILFAGQAPHMSADAHYKFVPNRNFYYVTGIDEPNVIFMLKKFGNSVEETLFIEKSDPVMEKWVGKTVSNEEAEKISGIKKVIYLDSFEKTMSNIFFTENVKHLYLDLECREWKGTETKTLAFAKHVREQYPHVTIGNVYPNICELRVFKTDEEIEIIKEAIAVTKDGIYNVLKHAKADMMEYELEAQFDFTLKSSGIKHHAFNTILASGKNATVLHYEDNDAQIQNGDLVLLDLGAQKDYYNADISYTFPANGTFSSRQKQIYNIVLNALKETTEIIKPGLKFAALNEHAKKVLAEGCKAVGLIQEDEELSKYYYHGVSHFLGLDTHDVGTYKDRVLEEGMVITIEPGLYIEEESIGIRIEDDILVTKDGHENLSKDIIREVEEIEEFMRENNVNVKQDEVVTK”, the protein production entry is “not failed”.
For the sequence “MKSKNSLLLTTVFTLLVTITTSNVFAAETATVKADENSTDKKNVSKKSYRVSKKVPAMRNRVYSQLSRAQQLADDGDKIEGFEVLAEVEDRLNSLNSYERAMLFNFYGFMYYANEDITLAVDSFNKVIAETAIPDSLIISTLYSLAQLSMQQQHYKEALDYLTQWREINAKELTGTQEMLFAQVYYQDKDFVNSLKHSEMAISLVEAKNKHPKENWLTLQRATYYELKQPKQVTKVMEKLIRLYDKPQYWLQLSSMYGEIGEEDKQMAVMEAAYQAGYITKASDILTLSQLYLFHGAPFKSAAVLEDSIAQGSIFADEDNLSMLARAYLTAKEYDKATKVLVRVSDIAQSGKHDALLAQTYLNTEQWQAAINSSTLALARYAKHKENKGNQVNDIANMHLILGMANFNLKKFERSLTSFAKAAQFTSTKKTALQWGKYVEREQQHHKVQLAMLN”, the protein production entry is recorded as “failed”.
